Test results published in US20190276509A1 (Memorial Sloan Kettering, published 2019).
No end group written: not given here.

Assays:
[1] = target: purified recombinant CBP KIX domain (Homo sapiens (Human)) (UniProt Q92793); assay: microscale thermophoresis (MST), FITC-peptide fixed, purified KIX titrated, n=3
[2] = target: purified recombinant CBP KIX domain (Homo sapiens (Human)) (UniProt Q92793); assay: microscale thermophoresis (MST), FITC-peptide at fixed concentration, purified KIX titrated; concentration read is that of KIX
[3] = target: T1, purified recombinant CBP KIX domain (Homo sapiens (Human), UniProt Q92793 587-666); assay: microscale thermophoresis (MST), FITC-peptide fixed, purified KIX titrated, n=3
T1 construct: Linker residues may remain after the thrombin cut; also called purified KIX
T1 sequence (Q92793 587-666 limits assumed): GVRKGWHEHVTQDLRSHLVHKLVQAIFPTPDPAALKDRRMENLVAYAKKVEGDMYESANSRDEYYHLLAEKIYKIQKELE

[4] = target: T1, purified recombinant CBP KIX domain; assay: microscale thermophoresis (MST), FITC-peptide at fixed concentration, purified KIX titrated; concentration read is that of KIX
[5] = target: T1, purified recombinant CBP KIX domain; assay: microscale thermophoresis (MST), FITC-peptide at fixed concentration, purified KIX titrated

purified recombinant CBP KIX domain (Homo sapiens (Human)), sequence (Q92793 587-666 limits assumed): as above

With “FITC-MYBMIM (FITC-conjugated D-amino acid retro-inverso peptide, D-aa)” the Kd [1] was 25.4 µM and the EC50 (read off the curve) [2] was 30 µM.

B1: FITC-MYB (FITC-conjugated L-amino acid peptide, L-aa) (peptide)
peptide: YGRKKRRQRRRGGKRIKELELLLMSTENELK-NH2
modifications: not fully specified (N-terminus); also: conjugated to FITC, site not given here, N-terminal acetyl
notes: It is uncertain whether the labelled peptide carried the TAT part; also called L-aa peptide
B1 was tested, and the Kd [3] was 5.25 µM and the “EC50 (read off the curve)” value [4] was ~5 µM.

B2: FITC-TAT (fluorescein-conjugated TAT peptide, FITC-AHA-YGRKKRRQRRR-NH2) (peptide)
peptide: YGRKKRRQRRR
modifications: not fully specified; N-terminal FITC-aminohexanoic acid (FITC-AHA); C-terminal amide; L-amino acids
B2: no binding (tested: about 50 uM KIX) [5].
